The target in test [1] is B7-H1 (full-length, expressed on BHK cells transfected with pZMP21 hB7-H1) (human) (UniProt Q9NZQ7). Briefly: flow cytometry (PE probe vs anti-CD8 APC) on BHK cells transfected with full-length B7-H1; no competitor.
For test [2] the target is unchanged. Briefly: flow cytometry on B7-H1-transfected BHK cells; competitor: excess unlabeled BTLA/mFc2 (row printed a second time).
The target is the same in test [3]. Briefly: flow cytometry on B7-H1-transfected BHK cells; competitor: excess unlabeled NKp30/mFc2.
The target is the same in test [4]. Briefly: flow cytometry on B7-H1-transfected BHK cells; competitor: excess unlabeled BTLA/mFc2.

Sequence of UniProt Q9NZQ7 (Q9NZQ7 19-290): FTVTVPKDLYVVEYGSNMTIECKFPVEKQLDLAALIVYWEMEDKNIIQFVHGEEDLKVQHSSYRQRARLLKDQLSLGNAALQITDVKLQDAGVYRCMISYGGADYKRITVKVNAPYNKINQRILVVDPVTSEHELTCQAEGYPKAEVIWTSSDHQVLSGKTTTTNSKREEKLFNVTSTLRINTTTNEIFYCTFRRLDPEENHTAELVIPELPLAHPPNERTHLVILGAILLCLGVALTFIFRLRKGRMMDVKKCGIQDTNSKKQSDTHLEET

In test [1], BTLA/mFc2 (Fc fusion) displayed a % double positive of 1.96%.
In the case of PD-1/Fc (Fc fusion), the % double positive in test [1] is 33.7%; in test [2], 28.8%; in test [3], 31.4%; in test [4], 28.8%.
Zenon control: the % double positive in test [1] was found to be 1.91%.

The values above are taken from patent US20060286092A1.
